Measurements as given in US20120309051A1 (UNIVERSITY OF MEDICINE AND DENTISTRY OF NEW JERSEY, published 2012).

Biological target: T1, GFP-MG53 (GFP fused to the amino-terminus of full-length mouse MG53) (mouse, UniProt Q1XH17 1-477)
T1 sequence: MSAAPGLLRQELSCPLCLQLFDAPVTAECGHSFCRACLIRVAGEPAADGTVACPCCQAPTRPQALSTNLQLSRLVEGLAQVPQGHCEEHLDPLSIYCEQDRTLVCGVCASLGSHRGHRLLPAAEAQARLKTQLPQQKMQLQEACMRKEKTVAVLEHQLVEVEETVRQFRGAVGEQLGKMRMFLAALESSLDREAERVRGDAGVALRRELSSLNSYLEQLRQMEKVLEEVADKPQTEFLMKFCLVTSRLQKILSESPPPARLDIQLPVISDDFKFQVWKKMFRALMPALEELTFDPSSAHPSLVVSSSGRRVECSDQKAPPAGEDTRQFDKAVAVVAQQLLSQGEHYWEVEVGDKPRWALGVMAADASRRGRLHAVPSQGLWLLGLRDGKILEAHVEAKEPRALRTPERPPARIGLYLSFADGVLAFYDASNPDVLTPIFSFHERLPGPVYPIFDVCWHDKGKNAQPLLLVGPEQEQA
Test: cell-based or functional assay

B1: caveolin-3 (recombinant, expressed from pcDNA-Cav-3) (other)
chain: MMAEEHTDLEAQIVKDIHCKEIDLVNRDPKNINEDIVKVDFEDVIAEPVGTYSFDGVWKVSYTTFTVSKYWCYRLLSTLLGVPLALLWGFLFACISFCHIWAVVPCIKSYLIEIQCISHIYSLCIRTFCNPLFAALGQVCSSIKVVLRKEV
reduction in the appearance of filapodia-like structures (C2C12 myoblasts transfected with caveolin-3 and GFP-MG53 in a ratio of 10:1): 82%
